Source: patent US20200002432A1, “ANTI-CD98 ANTIBODIES AND ANTIBODY DRUG CONJUGATES” (AbbVie Inc., priority 2016, published 2020)

T1: Cynomolgus monkey CD98 ECD with C-terminal His-tag (cynomolgus monkey, UniProt P08195 105-529 (human entry))
T1 construct: also called cyCD98 ECD; recombinant cynomolgus monkey CD98 extracellular domain
T1 chain: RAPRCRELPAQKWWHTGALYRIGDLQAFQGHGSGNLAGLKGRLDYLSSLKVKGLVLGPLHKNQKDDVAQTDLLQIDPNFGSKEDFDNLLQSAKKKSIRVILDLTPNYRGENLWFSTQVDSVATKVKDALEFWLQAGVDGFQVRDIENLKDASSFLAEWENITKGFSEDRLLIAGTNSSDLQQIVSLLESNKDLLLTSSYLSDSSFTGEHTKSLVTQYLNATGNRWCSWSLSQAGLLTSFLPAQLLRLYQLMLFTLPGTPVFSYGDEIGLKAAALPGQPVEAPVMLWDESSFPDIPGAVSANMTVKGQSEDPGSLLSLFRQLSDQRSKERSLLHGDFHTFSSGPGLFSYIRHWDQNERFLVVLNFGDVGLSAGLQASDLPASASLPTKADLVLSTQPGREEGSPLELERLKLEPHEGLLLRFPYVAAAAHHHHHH

T2: Human CD98 ECD with C-terminal His-tag (human, UniProt P08195 105-529)
T2 construct: also called huCD98 ECD; recombinant human CD98 extracellular domain
T2 sequence: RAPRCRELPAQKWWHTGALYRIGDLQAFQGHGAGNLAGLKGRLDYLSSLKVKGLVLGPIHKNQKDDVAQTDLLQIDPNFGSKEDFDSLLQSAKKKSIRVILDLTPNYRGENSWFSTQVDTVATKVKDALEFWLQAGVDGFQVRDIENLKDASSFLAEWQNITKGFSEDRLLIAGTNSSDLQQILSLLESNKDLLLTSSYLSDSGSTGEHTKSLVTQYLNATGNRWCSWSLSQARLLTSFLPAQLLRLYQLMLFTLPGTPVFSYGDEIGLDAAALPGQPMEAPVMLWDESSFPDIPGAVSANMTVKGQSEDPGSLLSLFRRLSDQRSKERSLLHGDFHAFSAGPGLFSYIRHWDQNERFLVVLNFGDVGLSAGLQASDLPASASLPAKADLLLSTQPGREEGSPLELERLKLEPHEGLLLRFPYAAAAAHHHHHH

T3: human CD98 (Homo sapiens, UniProt P08195)
T3 sequence (P08195 1-630 isoform P08195-1): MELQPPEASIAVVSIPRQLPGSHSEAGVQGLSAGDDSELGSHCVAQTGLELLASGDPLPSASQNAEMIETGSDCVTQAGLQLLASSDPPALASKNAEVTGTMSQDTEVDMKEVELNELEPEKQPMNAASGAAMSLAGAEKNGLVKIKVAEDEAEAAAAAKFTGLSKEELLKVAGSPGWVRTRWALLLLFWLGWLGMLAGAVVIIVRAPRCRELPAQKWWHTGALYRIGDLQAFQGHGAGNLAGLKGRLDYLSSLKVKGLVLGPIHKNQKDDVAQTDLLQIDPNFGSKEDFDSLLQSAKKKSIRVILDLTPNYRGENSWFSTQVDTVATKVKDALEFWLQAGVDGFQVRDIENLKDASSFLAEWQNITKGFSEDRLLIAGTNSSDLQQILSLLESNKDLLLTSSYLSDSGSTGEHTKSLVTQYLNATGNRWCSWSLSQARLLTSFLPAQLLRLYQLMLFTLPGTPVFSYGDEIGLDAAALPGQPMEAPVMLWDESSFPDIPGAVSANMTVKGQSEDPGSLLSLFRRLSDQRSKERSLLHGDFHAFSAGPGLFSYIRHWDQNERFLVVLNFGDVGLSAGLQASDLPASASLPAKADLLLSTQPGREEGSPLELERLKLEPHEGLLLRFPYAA

T4: human CD98 ECD (huCD98 ECD) (Homo sapiens, UniProt P08195)
T4 construct: His6 (with AAA linker) (C)
T4 sequence (P08195 with tags, fused parts or gaps): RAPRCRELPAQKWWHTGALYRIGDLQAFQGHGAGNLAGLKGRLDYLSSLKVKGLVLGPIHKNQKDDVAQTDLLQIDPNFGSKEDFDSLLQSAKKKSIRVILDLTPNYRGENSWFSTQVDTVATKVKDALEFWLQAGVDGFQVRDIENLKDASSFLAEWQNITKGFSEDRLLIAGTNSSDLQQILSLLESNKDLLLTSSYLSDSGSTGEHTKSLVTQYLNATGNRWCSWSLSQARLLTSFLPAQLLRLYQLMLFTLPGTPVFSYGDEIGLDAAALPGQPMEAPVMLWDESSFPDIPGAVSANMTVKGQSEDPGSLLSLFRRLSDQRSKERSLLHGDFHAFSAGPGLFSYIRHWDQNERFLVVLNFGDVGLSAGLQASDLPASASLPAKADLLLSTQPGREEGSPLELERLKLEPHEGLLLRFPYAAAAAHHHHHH


Key:
[1] = molecular target: T1, Cynomolgus monkey CD98 ECD with …; test: SPR (Biacore), mAb captured on anti-Fc, CD98 ECD as analyte
Description: (§1) The binding kinetics of these purified mouse and rat monoclonal anti-CD98 antibodies for purified recombinant CD98 protein (extracellular domain, ECD) were determined by surface plasmon resonance-based measurements made on Biacore T100/T200 instruments (GE Healthcare, Piscataway, N.J.) at 25° C. using an anti-Fc capture assay approach. Binding kinetic measurements were made in the assay buffer HBS-EP+: 10 mM Hepes, pH 7.4, 150 mM NaCl, 3 mM EDTA, 0.05% Tween 20). For example, approximately 8000 RU of anti-Fc (species specific) polyclonal antibody (Thermo Fisher Scientific Inc., Rockford, Ill.) diluted in 10 mM sodium acetate (pH 4.5) was directly immobilized across a CM5 research grade biosensor chip using a standard amine coupling kit according to manufacturer's instructions and procedures at 25 μg/ml. Unreacted moieties on the biosensor surface were blocked with ethanolamine. The test antibody to be captured as a ligand was diluted in running buffer to ˜0.5 μg/mL and injected over anti-Fc surface at a flow rate of 10 μL/min. CD98 binding and dissociation were observed under a continuous flow rate of 80 μL/min. Human and cynomolgus monkey CD98 ECDs, both with a C-terminal His-tag, are used for this study (Table 3). After each cycle the anti-Fc capture surface was regenerated using 10 mM Glycine-HCl, pH 1.5. During the assay, all measurements were referenced against the capture surface alone (i.e., with no captured test antibody) and buffer-only injections (no antigen) were used for double referencing. For kinetic analysis, rate equations derived from the 1:1 Langmuir binding model were fitted simultaneously, globally and with mass transfer term included to multiple referenced antigen binding curves using Biacore T100/T200 Evaluation software.

[2] = molecular target: T2, Human CD98 ECD with C-terminal His-tag; test: as above
Description: as §1

human CD98 = molecular target: T3, human CD98; test: Binding of humanized anti-CD98 antibodies to human CD98; conditions: humanized variants of huAb3/huAb15 and framework engineered antibodies
[3] = tested on: cynomolgus monkey CD98 ECD (cyCD98 ECD); test: Biacore surface plasmon resonance binding kinetics, anti-Fc capture; conditions: framework re-engineered mAbs, Table 24
Description: as §1
(§2) The in vitro binding activities of the recombinant anti-CD98 chimeric mAbs were measured against both recombinant CD98 extracellular domain proteins (ECDs) and CD98-expressing cells. Briefly, binding kinetics of anti-CD98 chimera mAbs for human and cynomolgus CD98 ECDs were determined by surface plasmon resonance-based measurements as described in Example 4. Table 10 reported the association and dissociation rate constants for CD98 binding, ka (M^−1s^−1) and […], and the equilibrium dissociation constant KD (M) of the interaction between antibodies and the target antigen. Binding of anti-CD98 chimera mAbs for CD98 on cell surface was evaluated by flow cytometry against CHO-K1 cell line stably transfected to express human CD98 and 3T12 cell line stably transfected to express cynomolgus monkey CD98. Data was analyzed using Graphpad Prism software and EC50 values were reported as the concentration of antibody to achieve 50% of maximal binding to CD98-expressing cells (Table 10).
(§3) The binding kinetics of the recombinant anti-CD98 chimeric antibodies for purified recombinant CD98 protein (extracellular domain. ECD) were determined by surface plasmon resonance-based measurements, as described in the Example 4.

[4] = molecular target: T4, human CD98 ECD (huCD98 ECD); test: as above; conditions: framework re-engineered mAbs, Table 24
Description: as §1, §2, §3

Kd [1] [nM]	koff [1] [s⁻¹]	kon [1] [M⁻¹ s⁻¹]	Kd [2] [nM]	koff [2] [s⁻¹]	kon [2] [M⁻¹ s⁻¹]	binding to human CD98 (human CD98)	ka, cynoCD98 ECD [3] [M⁻¹ s⁻¹]	kd, cynoCD98 ECD [3] [s⁻¹]	ka, huCD98 ECD [4] [M⁻¹ s⁻¹]	kd, huCD98 ECD [4] [s⁻¹]	Molecule
47	0.00088	19000	1.9	5.5e-05	29000						Ab13 (antibody, V domains shown, also called anti-CD98 hybridoma mAb Ab13) VH: EVKLQQSGDELVRPGASVKISCKASGYTFTSYSMHWVKERPGQGLEWIGAIFPIIGTTEYNQKFKGKATLTADKSSNTANMELSRLTSEDSAVYYCARVYLSYFDYWGQGVMVTVSS VL: DIQMTQSPSFLSASVGDRVTINCKASQNINKYLDWYQRKHGEAPKLLIYNTNNLQTGIPSRFSGSGSGTDYTLTISSLQPEDVATYFCLQHSSRYTFGAGTKLELK
						maintained binding to human CD98	30000	0.00067	290000	0.0018	huAb101: humanized framework engineered anti-CD98 antibody; heavy chain variable SEQ ID NO: 106, light chain variable SEQ ID NO: 107 (antibody, V domains shown) VH: EVQLVESGGGLVKPGGSLRLSCATSGFTFIDYYMSWVRQAPGKGLEWLGFIRNKANRYTTEYSASVKGRFTISRDNSKSILYLQMNSLKTEDTAVYYCTRDRPAWFVYWGQGTLVTVSS VL: DIVMTQTPLSLPVTPGEPASISCKSSQSLLYSSNQKNYLAWYLQKPGQSPQLLIYWASTRESGVPDRFSGSGSGTDFTLKISRVEAEDVGVYYCQQYYSYPYTFGGGTKVEIK
						maintained binding to human CD98	26000	0.00031	160000	0.00017	huAb109: humanized framework engineered anti-CD98 antibody; heavy chain variable SEQ ID NO: 116, light chain variable SEQ ID NO: 117 (antibody, V domains shown) VH: EVQLVESGGGLVQPGGSLRLSCAASGFTFSDYTMAWVRQAPGKGLEWVATIIYDARGTYYRDAVKGRFTISRDNAKNTLYLQMNSLRAEDTAVYYCARQSDDTYYYWGYFDYWGQGTMVTVSS VL: DIVMTQTPLSLPVTPGEPASINCKSSQSLLFSGNQKNYLAWYLQKPGQSPQLLIYWASTRQSGVPDRFSGSGSGTDFTLKISRVEAEDVGIYYCQQYYSSPYTFGQGTKLEIK
						maintained binding to human CD98	38000	5.3e-05	140000	2.4e-05	huAb105: humanized framework engineered anti-CD98 antibody; heavy chain variable SEQ ID NO: 111, light chain variable SEQ ID NO: 112 (antibody, V domains shown) VH: EVQLVESGGGLVQPGGSLRLSCAASGFTFSDYTMAWVRQAPGKGLEWVATIIYSGRGTYYRDAVKGRFTISRDNAKNTLYLQMNSLRAEDTAVYYCARQSDHTYYYWGYFDYWGQGTMVTVSS VL: DIVMTQTPLSLPVTPGEPASINCKSSQSLLFSGNQKNYLAWYLQKPGQSPQLLIYWASTRQSGVPDRFSGSGSGTDFTLKISRVEAEDVGIYYCQQYYDVPYTFGQGTKLEIK
						maintained binding to human CD98	31000	0.00044	180000	0.00059	huAb103: humanized framework engineered anti-CD98 antibody; heavy chain variable SEQ ID NO: 109, light chain variable SEQ ID NO: 107 (antibody, V domains shown) VH: EVQLVESGGGLVKPGGSLRLSCATSGFTFIDYYMSWVRQAPGKGLEWLGFIRNKAYGYTTEYSASVKGRFTISRDNSKSILYLQMNSLKTEDTAVYYCTRDRPAWFVYWGQGTLVTVSS VL: DIVMTQTPLSLPVTPGEPASISCKSSQSLLYSSNQKNYLAWYLQKPGQSPQLLIYWASTRESGVPDRFSGSGSGTDFTLKISRVEAEDVGVYYCQQYYSYPYTFGGGTKVEIK
						maintained binding to human CD98	33000	8.7e-05	110000	3.8e-05	huAb107: humanized framework engineered anti-CD98 antibody; heavy chain variable SEQ ID NO: 114, light chain variable SEQ ID NO: 112 (antibody, V domains shown) VH: EVQLVESGGGLVQPGGSLRLSCAASGFTFSDYTMAWVRQAPGKGLEWVATIIYSGRGTYYRDAVKGRFTISRDNAKNTLYLQMNSLRAEDTAVYYCARQSDDTYYYWGYFDYWGQGTMVTVSS VL: DIVMTQTPLSLPVTPGEPASINCKSSQSLLFSGNQKNYLAWYLQKPGQSPQLLIYWASTRQSGVPDRFSGSGSGTDFTLKISRVEAEDVGIYYCQQYYDVPYTFGQGTKLEIK
